# Test results from paper PMC9482650, “Quantitative fragmentomics allow affinity mapping of interactomes” (Nature Communications, 2022).
# T1: DFNB31_1, Q9P202
# T1 sequence (Q9P202 135-233, limits assumed, looked up): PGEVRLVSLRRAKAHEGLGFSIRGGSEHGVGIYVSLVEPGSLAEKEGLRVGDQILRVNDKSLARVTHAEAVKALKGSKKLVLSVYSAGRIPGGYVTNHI
# T2: LIN7C, Q9NUP9
# T2 sequence (Q9NUP9 88-185, limits assumed, looked up): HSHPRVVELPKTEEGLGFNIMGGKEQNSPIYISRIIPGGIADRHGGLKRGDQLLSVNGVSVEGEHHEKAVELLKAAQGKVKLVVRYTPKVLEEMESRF
# T3: LRRC7, Q96NW7
# T3 sequence (Q96NW7 1440-1537, limits assumed, looked up): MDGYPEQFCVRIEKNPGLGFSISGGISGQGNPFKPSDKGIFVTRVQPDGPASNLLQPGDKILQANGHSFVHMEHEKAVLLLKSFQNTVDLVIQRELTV
# T4: MPDZ_12, O75970
# T4 sequence (O75970 1857-1958, limits assumed, looked up): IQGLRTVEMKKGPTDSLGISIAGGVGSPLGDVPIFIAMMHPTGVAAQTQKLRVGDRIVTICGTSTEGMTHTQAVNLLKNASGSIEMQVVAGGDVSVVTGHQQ
# T5: RHPN1, Q8TCX5
# T5 sequence (Q8TCX5 508-602, limits assumed, looked up): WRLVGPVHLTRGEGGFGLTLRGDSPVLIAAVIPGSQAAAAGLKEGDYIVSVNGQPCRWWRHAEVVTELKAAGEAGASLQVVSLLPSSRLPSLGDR
# T6: SHANK1, Q9Y566
# T6 sequence (Q9Y566 658-767, limits assumed, looked up): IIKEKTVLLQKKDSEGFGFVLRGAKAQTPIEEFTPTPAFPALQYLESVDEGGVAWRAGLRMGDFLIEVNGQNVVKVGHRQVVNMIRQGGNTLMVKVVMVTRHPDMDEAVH
# T7: SNTG2, Q9NY99
# T7 sequence (Q9NY99 68-166, limits assumed, looked up): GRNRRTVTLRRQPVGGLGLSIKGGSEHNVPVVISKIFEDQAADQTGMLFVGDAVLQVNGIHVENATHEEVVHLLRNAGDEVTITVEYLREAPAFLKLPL
# T8: SYNJ2BP, P57105
# T8 sequence (P57105 8-110, limits assumed, looked up): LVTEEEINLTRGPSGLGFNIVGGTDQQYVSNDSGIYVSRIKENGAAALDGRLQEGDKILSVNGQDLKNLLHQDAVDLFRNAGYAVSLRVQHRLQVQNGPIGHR
# T9: TJP3_3, O95049
# T9 sequence (O95049 375-456, limits assumed, looked up): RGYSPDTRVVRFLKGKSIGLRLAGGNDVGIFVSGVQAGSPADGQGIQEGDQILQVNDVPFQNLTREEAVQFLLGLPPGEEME
# B1: CLDN3, O15551 (peptide)
# chain: GTGYDRKDYV
# B2: EPHA6, Q9UF33 (peptide)
# chain: MHIQEKGFHV
# B3: PTPN18, Q99952 (peptide)
# chain: RDPPAEWTRV
# B4: FOXI1, Q12951 (peptide)
# chain: VLYPREGTEV
# Target: T1, DFNB31_1, Q9P202
# Test: holdup assay
# Set-up: key: below the threshold = too weak to quantify, mostly under pKd 3.1 to 4
# Details: plain residues with an end cap or a label only (N-terminal biotin on a linker: ado-ado)
row,pKd,Binder
1,below the threshold,B1
2,below the threshold,B2
3,4.17,B3
4,3.8,B4

# Target: DLG1_2, Q12959
# Test: holdup assay
# Set-up: key: below the threshold = too weak to quantify, mostly under pKd 3.1 to 4
# Details: plain residues with an end cap or a label only (N-terminal biotin on a linker: ado-ado)
# DLG1_2, Q12959, sequence (Q12959 314-412): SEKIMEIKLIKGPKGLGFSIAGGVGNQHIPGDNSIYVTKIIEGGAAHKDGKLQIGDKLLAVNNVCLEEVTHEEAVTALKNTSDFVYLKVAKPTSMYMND
row,pKd,Binder
1,below the threshold,B1
2,below the threshold,B2
3,4.48,B3
4,4.84,B4

# Target: DLG4_2, P78352
# Test: holdup assay
# Set-up: key: below the threshold = too weak to quantify, mostly under pKd 3.1 to 4
# Details: plain residues with an end cap or a label only (N-terminal biotin on a linker: ado-ado)
# DLG4_2, P78352, sequence (P78352 155-259): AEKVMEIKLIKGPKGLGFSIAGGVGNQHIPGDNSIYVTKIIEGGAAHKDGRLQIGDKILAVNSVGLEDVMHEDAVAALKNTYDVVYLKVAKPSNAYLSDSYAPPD
row,pKd,Binder
1,3.63,B1
2,below the threshold,B2
3,4.26,B3
4,4.62,B4

# Target: FRMPD2_1, Q68DX3
# Test: holdup assay
# Set-up: key: below the threshold = too weak to quantify, mostly under pKd 3.1 to 4
# Details: plain residues with an end cap or a label only (N-terminal biotin on a linker: ado-ado)
# FRMPD2_1, Q68DX3, sequence (Q68DX3 770-861): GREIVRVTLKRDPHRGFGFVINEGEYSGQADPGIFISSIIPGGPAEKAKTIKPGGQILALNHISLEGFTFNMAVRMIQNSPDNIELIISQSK
row,pKd,Binder
1,below the threshold,B1
2,below the threshold,B2
3,below the threshold,B3
4,3.86,B4

# Target: FRMPD2_3, Q68DX3
# Test: holdup assay
# Set-up: key: below the threshold = too weak to quantify, mostly under pKd 3.1 to 4
# Details: plain residues with an end cap or a label only (N-terminal biotin on a linker: ado-ado)
# FRMPD2_3, Q68DX3, sequence (Q68DX3 1073-1166): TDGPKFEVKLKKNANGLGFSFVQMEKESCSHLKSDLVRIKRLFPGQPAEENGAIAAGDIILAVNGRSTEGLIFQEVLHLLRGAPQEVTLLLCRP
row,pKd,Binder
1,below the threshold,B1
2,below the threshold,B2
3,below the threshold,B3
4,below the threshold,B4

# Target: FRMPD3, Q5JV73
# Test: holdup assay
# Set-up: key: below the threshold = too weak to quantify, mostly under pKd 3.1 to 4
# Details: plain residues with an end cap or a label only (N-terminal biotin on a linker: ado-ado)
# FRMPD3, Q5JV73, sequence (Q5JV73 12-100): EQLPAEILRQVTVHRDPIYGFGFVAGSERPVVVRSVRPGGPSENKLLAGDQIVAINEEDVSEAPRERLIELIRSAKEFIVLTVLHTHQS
row,pKd,Binder
1,below the threshold,B1
2,below the threshold,B2
3,below the threshold,B3
4,below the threshold,B4

# Target: FRMPD4, Q14CM0
# Test: holdup assay
# Set-up: key: below the threshold = too weak to quantify, mostly under pKd 3.1 to 4
# Details: plain residues with an end cap or a label only (N-terminal biotin on a linker: ado-ado)
# FRMPD4, Q14CM0, sequence (Q14CM0 67-160): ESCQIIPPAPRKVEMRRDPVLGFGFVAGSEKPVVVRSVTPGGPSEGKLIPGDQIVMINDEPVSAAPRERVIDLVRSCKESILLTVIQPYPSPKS
row,pKd,Binder
1,3.56,B1
2,3.77,B2
3,4.07,B3
4,3.51,B4

# Target: HTRA2, O43464
# Test: holdup assay
# Set-up: key: below the threshold = too weak to quantify, mostly under pKd 3.1 to 4
# Details: plain residues with an end cap or a label only (N-terminal biotin on a linker: ado-ado)
# HTRA2, O43464, sequence (O43464 355-458): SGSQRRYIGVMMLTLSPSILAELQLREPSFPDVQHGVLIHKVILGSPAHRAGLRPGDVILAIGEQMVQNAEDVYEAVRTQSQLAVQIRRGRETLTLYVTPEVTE
row,pKd,Binder
1,below the threshold,B1
2,below the threshold,B2
3,below the threshold,B3
4,below the threshold,B4

# Target: IL16_3, Q14005
# Test: holdup assay
# Set-up: key: below the threshold = too weak to quantify, mostly under pKd 3.1 to 4
# Details: plain residues with an end cap or a label only (N-terminal biotin on a linker: ado-ado)
# IL16_3, Q14005, sequence (Q14005 1107-1207): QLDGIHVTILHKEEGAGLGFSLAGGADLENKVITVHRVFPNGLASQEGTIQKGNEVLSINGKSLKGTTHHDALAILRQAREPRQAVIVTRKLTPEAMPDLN
row,pKd,Binder
1,below the threshold,B1
2,below the threshold,B2
3,below the threshold,B3
4,below the threshold,B4

# Target: Inadl_10, Q8NI35
# Test: holdup assay
# Set-up: key: below the threshold = too weak to quantify, mostly under pKd 3.1 to 4
# Details: plain residues with an end cap or a label only (N-terminal biotin on a linker: ado-ado)
# Inadl_10, Q8NI35, sequence (Q8NI35 1673-1763): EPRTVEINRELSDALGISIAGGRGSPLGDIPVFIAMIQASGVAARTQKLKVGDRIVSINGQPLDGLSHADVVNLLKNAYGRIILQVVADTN
row,pKd,Binder
1,below the threshold,B1
2,below the threshold,B2
3,3.61,B3
4,below the threshold,B4

# Target: Inadl_5, Q8NI35
# Test: holdup assay
# Set-up: key: below the threshold = too weak to quantify, mostly under pKd 3.1 to 4
# Details: plain residues with an end cap or a label only (N-terminal biotin on a linker: ado-ado)
# Inadl_5, Q8NI35, sequence (Q8NI35 673-780): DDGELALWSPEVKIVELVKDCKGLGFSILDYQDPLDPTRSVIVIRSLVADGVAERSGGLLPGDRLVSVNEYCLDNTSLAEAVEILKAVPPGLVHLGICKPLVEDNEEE
row,pKd,Binder
1,3.49,B1
2,below the threshold,B2
3,below the threshold,B3
4,3.83,B4

# Target: Inadl_8, Q8NI35
# Test: holdup assay
# Set-up: key: below the threshold = too weak to quantify, mostly under pKd 3.1 to 4
# Details: plain residues with an end cap or a label only (N-terminal biotin on a linker: ado-ado)
# Inadl_8, Q8NI35, sequence (Q8NI35 1425-1530): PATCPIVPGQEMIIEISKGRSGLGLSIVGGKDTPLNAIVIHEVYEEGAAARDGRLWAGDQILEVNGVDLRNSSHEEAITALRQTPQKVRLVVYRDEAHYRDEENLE
row,pKd,Binder
1,4.13,B1
2,below the threshold,B2
3,4.2,B3
4,3.82,B4

# Target: T2, LIN7C, Q9NUP9
# Test: holdup assay
# Set-up: key: below the threshold = too weak to quantify, mostly under pKd 3.1 to 4
# Details: plain residues with an end cap or a label only (N-terminal biotin on a linker: ado-ado)
row,pKd,Binder
1,below the threshold,B1
2,below the threshold,B2
3,below the threshold,B3
4,4.26,B4

# Target: LNX1_1, Q8TBB1
# Test: holdup assay
# Set-up: key: below the threshold = too weak to quantify, mostly under pKd 3.1 to 4
# Details: plain residues with an end cap or a label only (N-terminal biotin on a linker: ado-ado)
# LNX1_1, Q8TBB1, sequence (Q8TBB1 261-371): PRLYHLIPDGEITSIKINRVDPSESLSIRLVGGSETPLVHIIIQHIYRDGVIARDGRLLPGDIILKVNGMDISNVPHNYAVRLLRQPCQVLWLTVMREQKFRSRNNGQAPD
row,pKd,Binder
1,below the threshold,B1
2,below the threshold,B2
3,3.73,B3
4,4.17,B4

# Target: T3, LRRC7, Q96NW7
# Test: holdup assay
# Set-up: key: below the threshold = too weak to quantify, mostly under pKd 3.1 to 4
# Details: plain residues with an end cap or a label only (N-terminal biotin on a linker: ado-ado)
row,pKd,Binder
1,below the threshold,B1
2,below the threshold,B2
3,below the threshold,B3
4,3.49,B4

# Target: MAGI1_1, Q96QZ7
# Test: holdup assay
# Set-up: key: below the threshold = too weak to quantify, mostly under pKd 3.1 to 4
# Details: plain residues with an end cap or a label only (N-terminal biotin on a linker: ado-ado)
# MAGI1_1, Q96QZ7, sequence (Q96QZ7 1-106): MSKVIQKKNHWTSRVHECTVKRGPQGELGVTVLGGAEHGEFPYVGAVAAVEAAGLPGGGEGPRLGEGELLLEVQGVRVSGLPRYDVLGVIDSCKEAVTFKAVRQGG
row,pKd,Binder
1,below the threshold,B1
2,below the threshold,B2
3,below the threshold,B3
4,below the threshold,B4

# Target: MAGI3_2, Q5TCQ9
# Test: holdup assay
# Set-up: key: below the threshold = too weak to quantify, mostly under pKd 3.1 to 4
# Details: plain residues with an end cap or a label only (N-terminal biotin on a linker: ado-ado)
# MAGI3_2, Q5TCQ9, sequence (Q5TCQ9 398-503): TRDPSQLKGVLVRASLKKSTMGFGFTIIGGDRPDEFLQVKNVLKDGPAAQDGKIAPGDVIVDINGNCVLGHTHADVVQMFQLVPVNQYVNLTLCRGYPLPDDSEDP
row,pKd,Binder
1,below the threshold,B1
2,below the threshold,B2
3,4.27,B3
4,4.52,B4

# Target: T4, MPDZ_12, O75970
# Test: holdup assay
# Set-up: key: below the threshold = too weak to quantify, mostly under pKd 3.1 to 4
# Details: plain residues with an end cap or a label only (N-terminal biotin on a linker: ado-ado)
row,pKd,Binder
1,below the threshold,B1
2,below the threshold,B2
3,3.66,B3
4,below the threshold,B4

# Target: NHERF4_1, Q86UT5-2
# Test: holdup assay
# Set-up: key: below the threshold = too weak to quantify, mostly under pKd 3.1 to 4
# Details: plain residues with an end cap or a label only (N-terminal biotin on a linker: ado-ado)
# NHERF4_1, Q86UT5-2, sequence (Q86UT5 other isoform, or with tags, fused parts or gaps): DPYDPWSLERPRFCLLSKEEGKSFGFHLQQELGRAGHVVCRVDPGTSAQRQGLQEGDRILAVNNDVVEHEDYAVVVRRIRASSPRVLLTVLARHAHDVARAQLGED
row,pKd,Binder
1,3.66,B1
2,below the threshold,B2
3,3.62,B3
4,3.71,B4

# Target: PDZRN4_1, Q6ZMN7
# Test: holdup assay
# Set-up: key: below the threshold = too weak to quantify, mostly under pKd 3.1 to 4
# Details: plain residues with an end cap or a label only (N-terminal biotin on a linker: ado-ado)
# PDZRN4_1, Q6ZMN7, sequence (Q6ZMN7 213-318): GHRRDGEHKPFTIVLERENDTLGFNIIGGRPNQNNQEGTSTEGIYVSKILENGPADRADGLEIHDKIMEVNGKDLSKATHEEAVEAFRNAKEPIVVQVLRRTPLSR
row,pKd,Binder
1,below the threshold,B1
2,below the threshold,B2
3,below the threshold,B3
4,4.25,B4

# Target: PICK1, Q9NRD5
# Test: holdup assay
# Set-up: key: below the threshold = too weak to quantify, mostly under pKd 3.1 to 4
# Details: plain residues with an end cap or a label only (N-terminal biotin on a linker: ado-ado)
# PICK1, Q9NRD5, sequence (Q9NRD5 17-115): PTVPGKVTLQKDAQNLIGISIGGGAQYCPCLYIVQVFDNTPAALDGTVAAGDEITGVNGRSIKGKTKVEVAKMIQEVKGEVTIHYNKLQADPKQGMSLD
row,pKd,Binder
1,below the threshold,B1
2,4.18,B2
3,below the threshold,B3
4,4.21,B4

# Target: T5, RHPN1, Q8TCX5
# Test: holdup assay
# Set-up: key: below the threshold = too weak to quantify, mostly under pKd 3.1 to 4
# Details: plain residues with an end cap or a label only (N-terminal biotin on a linker: ado-ado)
row,pKd,Binder
1,below the threshold,B1
2,below the threshold,B2
3,4.35,B3
4,3.95,B4

# Target: SCRIB_2, Q14160
# Test: holdup assay
# Set-up: key: below the threshold = too weak to quantify, mostly under pKd 3.1 to 4
# Details: plain residues with an end cap or a label only (N-terminal biotin on a linker: ado-ado)
# SCRIB_2, Q14160, sequence (Q14160 857-960): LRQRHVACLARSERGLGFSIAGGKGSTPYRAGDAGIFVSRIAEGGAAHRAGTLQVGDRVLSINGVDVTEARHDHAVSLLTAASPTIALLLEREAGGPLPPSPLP
row,pKd,Binder
1,below the threshold,B1
2,below the threshold,B2
3,4.12,B3
4,4.16,B4

# Target: T6, SHANK1, Q9Y566
# Test: holdup assay
# Set-up: key: below the threshold = too weak to quantify, mostly under pKd 3.1 to 4
# Details: plain residues with an end cap or a label only (N-terminal biotin on a linker: ado-ado)
row,pKd,Binder
1,below the threshold,B1
2,below the threshold,B2
3,5.05,B3
4,3.49,B4

# Target: T7, SNTG2, Q9NY99
# Test: holdup assay
# Set-up: key: below the threshold = too weak to quantify, mostly under pKd 3.1 to 4
# Details: plain residues with an end cap or a label only (N-terminal biotin on a linker: ado-ado)
row,pKd,Binder
1,below the threshold,B1
2,below the threshold,B2
3,4.19,B3
4,3.6,B4

# Target: T8, SYNJ2BP, P57105
# Test: holdup assay
# Set-up: key: below the threshold = too weak to quantify, mostly under pKd 3.1 to 4
# Details: plain residues with an end cap or a label only (N-terminal biotin on a linker: ado-ado)
row,pKd,Binder
1,below the threshold,B1
2,below the threshold,B2
3,below the threshold,B3
4,5.23,B4

# Target: TJP2_1, Q9UDY2
# Test: holdup assay
# Set-up: key: below the threshold = too weak to quantify, mostly under pKd 3.1 to 4
# Details: plain residues with an end cap or a label only (N-terminal biotin on a linker: ado-ado)
# TJP2_1, Q9UDY2, sequence (Q9UDY2 24-128): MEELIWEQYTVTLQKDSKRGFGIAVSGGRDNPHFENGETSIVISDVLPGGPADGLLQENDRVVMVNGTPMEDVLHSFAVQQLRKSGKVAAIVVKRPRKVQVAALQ
row,pKd,Binder
1,3.94,B1
2,below the threshold,B2
3,3.6,B3
4,4,B4

# Target: T9, TJP3_3, O95049
# Test: holdup assay
# Set-up: key: below the threshold = too weak to quantify, mostly under pKd 3.1 to 4
# Details: plain residues with an end cap or a label only (N-terminal biotin on a linker: ado-ado)
row,pKd,Binder
1,3.73,B1
2,below the threshold,B2
3,below the threshold,B3
4,3.48,B4
